Assay results: publication doi:10.1101/590273, “The structure of an injectisome export gate demonstrates conservation of architecture in the core export gate between flagellar and virulence type three secretion systems” (bioRxiv, 2019)
“And” between values parts separate entries of the source, which are not always exact repeats. Equal entries are not always repeated.

T1: Salmonella enterica serovar Typhimurium FliR (Salmonella enterica serovar Typhimurium, UniProt P54702 1-264)
T1 construct: FliR, flagellar export gate component of Salmonella enterica serovar Typhimurium; source: expression of the complete operon
T1 sequence: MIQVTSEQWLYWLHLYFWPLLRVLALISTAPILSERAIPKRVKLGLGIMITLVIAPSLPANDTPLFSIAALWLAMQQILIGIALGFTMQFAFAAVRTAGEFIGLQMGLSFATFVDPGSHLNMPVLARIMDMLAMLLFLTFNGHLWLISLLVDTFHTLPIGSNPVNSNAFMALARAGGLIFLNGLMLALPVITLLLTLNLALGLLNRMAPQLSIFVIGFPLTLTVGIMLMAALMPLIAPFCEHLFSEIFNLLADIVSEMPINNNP

T2: Shigella flexneri SctT (Spa29) (Shigella flexneri, UniProt P0A1M6 1-256)
T2 construct: Spa29 (SctT), export gate component of the Shigella flexneri virulence type three secretion system; expressed from the complete operon; One copy stands in the complex; not shown: dual-strep tag, C-terminal, kept
T2 sequence: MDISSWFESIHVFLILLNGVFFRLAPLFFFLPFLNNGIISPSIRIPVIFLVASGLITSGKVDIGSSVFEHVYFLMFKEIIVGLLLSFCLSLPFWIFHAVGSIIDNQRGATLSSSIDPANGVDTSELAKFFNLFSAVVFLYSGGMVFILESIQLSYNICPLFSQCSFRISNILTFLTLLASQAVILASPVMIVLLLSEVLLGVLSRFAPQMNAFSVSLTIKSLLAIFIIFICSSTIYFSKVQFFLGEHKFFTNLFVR

B1: Salmonella enterica serovar Typhimurium FliQ (natural protein)
chain: MTPESVMMMGTEAMKVALALAAPLLLVALITGLIISILQAATQINEMTLSFIPKIVAVFIAIIVAGPWMLNLLLDYVRTLFSNLPYIIG
notes: FliQ, flagellar export gate component of Salmonella enterica serovar Typhimurium; source: expression of the complete operon
B2: Shigella flexneri SctS (Spa9) (natural protein)
chain: MSDIVYMGNKALYLILIFSLWPVGIATVIGLSIGLLQTVTQLQEQTLPFGIKLIGVSISLLLLSGWYGEVLLSFCHEIMFLIKSGV
notes: Spa9 (SctS), export gate component of the Shigella flexneri virulence type three secretion system; expressed from the complete operon; Two to four copies stand in the complexes seen (SctR5S2T1, SctR5S3T1, SctR5S4T1)
B3: Shigella flexneri SctR (Spa24) (natural protein)
chain: MLSDMSLIATLSFFTLLPFLVAAGTCYIKFSIVFVMVRNALGLQQVPSNMTLNGIALIMALFVMKPIIEAGYENYLNGPQKFDTISDIVRFSDSGLMEYKQYLKKHTDLELARFFQRSEEENADLKSAENNDYSLFSLLPAYALSEIKDAFKIGFYLYLPFVVVDLVISSILLALGMMMMSPITISVPIKLVLFVALDGWGILSKALIEQYINIPA
notes: Spa24 (SctR), export gate component of the Shigella flexneri virulence type three secretion system; expressed from the complete operon; Five copies stand in the SctR5S4T1 complex
B4: Salmonella enterica serovar Typhimurium FliP (natural protein)
chain: QLPGLISQPLAGGGQSWSLSVQTLVFITSLTFLPAILLMMTSFTRIIIVFGLLRNALGTPSAPPNQVLLGLALFLTFFIMSPVIDKIYVDAYQPFSEQKISMQEALDKGAQPLRAFMLRQTREADLALFARLANSGPLQGPEAVPMRILLPAYVTSELKTAFQIGFTIFIPFLIIDLVIASVLMALGMMMVPPATIALPFKLMLFVLVDGWQLLMGSLAQSFYS
notes: FliP, flagellar export gate component of Salmonella enterica serovar Typhimurium; source: expression of the complete operon

Columns and labels:
[1] = target: T1, Salmonella enterica serovar Typhimurium …; experiment: cryo-EM structure; re-refinement of the original S. Typhimurium FliPQR data (Kuhlen, Abrusci et al. 2018) in RELION-3 with particle polishing and per-particle CTF refinement, 3.65 Å; coordinates remodeled and re-refined; conditions: both partners purified
[2] = target: B3; experiment: cryo-EM structure; SctRST complex co-expressed from one operon and purified by the strep tag on SctT; 0.01% LMNG in TBS (100 mM Tris, 150 mM NaCl, 1 mM EDTA, pH 8), 8.4 mg/ml; single particle cryoEM, RELION-3, 3.5 Å; further 3D classification gives classes with 2, 3 or 4 SctS; conditions: both partners purified
[3] = target: T2, Shigella flexneri SctT (Spa29); experiment: as above; conditions: both partners purified
[4] = target: the molecule itself; experiment: cryo-EM structure; re-refinement of the original S. Typhimurium FliPQR data (Kuhlen, Abrusci et al. 2018) in RELION-3 with particle polishing and per-particle CTF refinement, 3.65 Å; coordinates remodeled and re-refined

Binder: B1
- binding result [1]: binds

Binder: B2
- binding result [2]: binds
- stoichiometry N [3]: 4 and 2 and 3

Binder: B3
- binding result [3]: binds

Binder: B4
- binding result [1]: binds
- binding result [4]: binds
